Assay results from publication PMC10629159.

Test: BioID2 proximity profile; Myc immunofluorescence
Conditions: glycan lost; control: EMP3 WT bait

B1: Epithelial membrane protein 3 (EMP3): N47A (protein)
parent chain: MSLLLLVVSALHILILILLFVATLDKSWWTLPGKESLNLWYDCTWNNDTKTWACSNVSENGWLKAVQVLMVLSLILCCLSFILFMFQLYTMRRGGLFYATGLCQLCTSVAVFTGALIYAIHAEEILEKHPRGGSFGYCFALAWVAFPLALVSGIIYIHLRKRE
- localisation_or_trafficking: no change
